Test results published in the RNAGym collection of RNA variant scans (doi:10.7554/elife.90254).

B1: OR4K15 (parent)
chain: GUUAACGGUCAUAGGCCAUGGAAACUAGGAGCACCAUUUCGCUGCCAGUGAAGAAAUGAACAAAGAAAAUCUGGGCCAGGCAGGCAUCAAAAGAAAUAGUCUUGCGCUCAACCAGAAAGUCUGUAAUCAUUUUAAGGGUA

Variants of: B1
Test: self-cleavage, relative activity (ratio to wild type); higher = more cleavage; in vitro, sequencing; the parent is a self-cleaving ribozyme

Variant	self-cleavage
A51G C109U	0.4
A135G G137A	0.09
A5G U120A	1.77
A82G A117G	0.85
A24G A78G	0.21
A69G A114G	0.17
A47U A91U	0.51
A78G A96G	0.24
C25A A33G	0.9
A5G C85U	0.92
U19A A86U	1.87
U72G U120A	0.19
A22G G28A	1.28
U26C A69C	1.74
U19C U127C	0.95
A90C A118G	1.04
A64U A116G	0.21
A27G A129G	1.06
A62G A90G	0.54
G80U U120C	0.08
A22G A30U	1.9
A69C A90G	0.37
G20A U37C	0.64
A23U A82G	0.82

Variant	self-cleavage
U37A A114U	0.06
A95G G138C	2.62
A62C A78U	0.46
U120C U139G	1.36
G21A U132A	1.94
A55G A126C	0.18
C105U U132C	0.16
U9C U131A	1.8
G28U A52G	1.37
A110G A134G	0.12
A24G U108A	0.04
U37C A134G	1.32
U43C A68G	1.21
A69G	1.16
C17A A59U	1.14
A11G A67G	0.74
G93U A134G	1.18
A90U U127C	1.37
A5G U87A	0.62
A68U U127C	0.82
A23G U122A	1.72
A89U U132C	1.64
A55G U102C	1.75
G29A A86G	1.65

Variant	self-cleavage
A64U A117G	1.18
C81U	0.35
U72A U130C	0.13
C10U	0.84
U9C U49A	1.56
G50U U100G	1.34
A95G C101A	0.52
A64G A68U	1.42
U70C C101G	0.11
A22U A140G	1.41
A116G U127C	0.31
G7A U102C	1.75
A63U U122C	1.57
A91U A98G	0.61
G115U A117G	0.39
U39C A82U	0.22
U87C U108A	0.01
A23C U132C	1.51
U72C G136C	0.31
U2C A23G	1.01
U2C U139A	0.92
C32A A47G	0.49
A47G A110C	0.1
U9C A13G	0.81

Variant	self-cleavage
C77U U103C	2.12
U9A C34U	0.55
U39C A135C	1.38
A94G A129G	1.29
U19A A110C	0.3
U19C A69C	1.71
A94G U103A	0.39
A22G G29C	2.4
A5G U122A	1.34
A54U U72C	0.09
A63G A125C	1.23
G31A C32U	1.42
A51G A69U	1.41
U108A A117G	0.02
U9C G65A	2.38
G7A A96G	2.05
G44A A51G	2.19
G74C	0.19
U39A A91U	0.94
A52G	1.11
U43C A94G	1.78
A82U A96G	0.24
A68C A92G	1.88
A82C A116G	0.09

Variant	self-cleavage
A51U G58A	1.56
U39A U130C	1.09
A36G A69G	1.37
U19A A96G	1.64
U122C A135C	0.54
G14A C40A	1.54
A22G A116G	0.57
A89G U103G	0.02
A4U A118G	1.08
A91U A110U	0.82
A54G A118G	1.08
U39C C45A	0.46
A82C A125U	0
A47G A56G	1.03
A89G A135G	1.68
C35U U57C	0.58
U12A U130C	1.21
A68G G83A	1.73
A52G U122G	1.94
A52G U122A	0.76
U37C A92G	0.77
A18U G79A	0.05
A110G U120C	0.06
A47G U124C	0.32

Variant	self-cleavage
G14A	1.24
U9C C85U	1.44
G44A A68G	1.81
U3C U43C	0.78
U3C C105U	0.06
A22G A91U	1.06
U103G G119A	0.01
A23G A51G	1.33
A30G A62U	1.29
A86U A114U	0.11
A62G C112G	0
A18U A64G	0.9
U26C A47G	1.24
A18C A96U	0.98
C113U G136A	0.18
A59G C101U	0.26
U43A A98G	1.07
A134G A135C	1.54
U103C U122C	0.55
A36G A55U	1.38
A18G A30G	0.88
A36G A116G	0.76
C34U A59U	0.75
A13G U97A	1.2

Variant	self-cleavage
U39C C71U	0.29
A11G A64G	1.3
C105G A117G	0.02
G20A C121U	2.49
U37C C77U	2.11
A4G G50U	1.39
A5C A30G	0.85
U103C A117G	0.71
A24G G104A	0.04
U26C A114G	0.04
U130G	1.03
A91G U132C	0.88
G74A G115U	0.03
G31A U122C	2.04
G41A A116G	0.63
A62G A94G	1.52
C77U U133C	2.55
U26C A96U	1.89
A98G A135G	0.83
A68U U108A	0.05
A94C A96G	0.94
A22U U102C	2.02
U39C A118U	0.78
